# In the RNAGym collection of RNA variant scans (doi:10.1101/gr.219683.116):
# B1: mRNA-splicing (parent)
# chain: AGUUGCUGCUGGGAGCUCCAGCACAGUGAAAUGGACAGAAGGGCAGAGCAA
# Variants of: B1
# Assay: exon inclusion enrichment index; higher = more inclusion; WT1 exon 5 minigene, HEK293
row,Variant,exon inclusion enrichment index
1,G5U G8U C9U A37G G38U,0.0298
2,G5U G8U C9U A37G G38C,0.241
3,G5U G8U C9U A37G G38A,0.184
4,G5U G8U C9U C18U,0.0536
5,G5U G8U C9U C18G,0.139
6,G5U G8U C9U C18A,0.0931
7,G5U G8U C9U G41C G42U,0.643
8,G5U G8U C9U G41C G42A,0.229
9,G5U G8U C9U G41C G42C,0.753
10,G5U G8U C9U C24A,0.116
11,G5U G8U C9U C24G,0.199
12,G5U G8U C9U C24U,0.0331
13,G5U G8U C9U A30G A31G,0.0186
14,G5U G8U C9U A30G A31C,0.00346
15,G5U G8U C9U A30G A31U,0.0253
16,G5U G8U C9U G12U G13A,0.000421
17,G5U G8U C9U G12U G13U,0.000363
18,G5U G8U C9U G12U G13C,0.00926
19,G5U G8U C9U G15A C16G,0.043
20,G5U G8U C9U G15A C16A,0.0496
21,G5U G8U C9U G15A C16U,0.0203

row,Variant,exon inclusion enrichment index
1,G5U G8U C9U G34A A35U,0.0163
2,G5U G8U C9U G34A A35G,0.0238
3,G5U G8U C9U G34A A35C,0.0912
4,G5U G8U C9U A39C A40G,0.162
5,G5U G8U C9U A39C A40C,0.321
6,G5U G8U C9U A39C A40U,0.141
7,G5U G8U C9U G28A,0.0119
8,G5U G8U C9U G28C,0.0778
9,G5U G8U C9U G28U,0.0111
10,G5U G8U C9U G33C G34C,0.0648
11,G5U G8U C9U G33C G34A,0.0575
12,G5U G8U C9U G33C G34U,0.0844
13,G5U G8U C9U C18G C19A,0.159
14,G5U G8U C9U C18G C19G,0.195
15,G5U G8U C9U C18G C19U,0.00531
16,G5U G8U C9U A47C,0.283
17,G5U G8U C9U A47U,0.115
18,G5U G8U C9U A47G,0.0159
19,G5U G8U C9U C19U,0.00467
20,G5U G8U C9U C19G,0.0649
21,G5U G8U C9U C19A,0.0498

row,Variant,exon inclusion enrichment index
1,G5U G8U C9U C44A A45C,0.576
2,G5U G8U C9U C44A A45U,0.41
3,G5U G8U C9U C44A A45G,0.326
4,G5U G8U C9U G28C A29U,0.0407
5,G5U G8U C9U G28C A29C,0.115
6,G5U G8U C9U G28C A29G,0.342
7,G5U G8U C9U A35C,0.0257
8,G5U G8U C9U A35U,0.0145
9,G5U G8U C9U A35G,0.0347
10,G5U G8U C9U A39U A40G,0.0207
11,G5U G8U C9U A39U A40C,0.287
12,G5U G8U C9U A39U A40U,0.0352
13,G5U G8U C9U A37C G38U,0.0543
14,G5U G8U C9U A37C G38A,0.157
15,G5U G8U C9U A37C G38C,0.175
16,G5U G8U C9U C22A A23G,0.141
17,G5U G8U C9U C22A A23U,0.0576
18,G5U G8U C9U C22A A23C,0.435
19,G5U G8U C9U G12A,0.0372
20,G5U G8U C9U G12C,0.0449
21,G5U G8U C9U G12U,0.0166

row,Variant,exon inclusion enrichment index
1,G5U G8U C9U G11U G12A,0.00214
2,G5U G8U C9U G11U G12U,0.00578
3,G5U G8U C9U G11U G12C,0.0157
4,G5U G8U C9U G21U C22A,0.0438
5,G5U G8U C9U G21U C22U,0.0182
6,G5U G8U C9U G21U C22G,0.103
7,G5U G8U C9U A35G C36G,0.00476
8,G5U G8U C9U A35G C36U,0.0033
9,G5U G8U C9U A35G C36A,0.0301
10,G5U G8U C9U G12C G13C,0.00507
11,G5U G8U C9U G12C G13U,0.0014
12,G5U G8U C9U G12C G13A,0.0253
13,G5U G8U C9U G38U A39G,0.0405
14,G5U G8U C9U G38U A39C,0.088
15,G5U G8U C9U G38U A39U,0.00101
16,G5U G8U C9U G13C A14G,0.2
17,G5U G8U C9U G13C A14U,0.1
18,G5U G8U C9U G13C A14C,0.063
19,G5U G8U C9U C24A A25G,0.175
20,G5U G8U C9U C24A A25U,0.149
21,G5U G8U C9U C24A A25C,0.849
